Substrate in the data set: NC(=O)N1c2ccccc2C=Cc2ccccc21
Description: Steady-state NADPH oxidation by CYP3A4 Nanodiscs with CPR. Type of data set: biochemical, human. The conditions noted are these: other: at 30 µM PGS; at 200 µM CBZ; pH 7.4; 37.0 °C.

Broadly, the kcat is the number of substrate molecules converted per active site and unit of time at saturation.

B1: CYP3A4 (Homo sapiens; S18F) (protein)
chain: MALLLAVFLVLLYLYGTHSHGLFKKLGIPGPTPLPFLGNILSYHKGFCMFDMECHKKYGKVWGFYDGQQPVLAITDPDMIKTVLVKECYSVFTNRRPFGPVGFMKSAISIAEDEEWKRLRSLLSPTFTSGKLKEMVPIIAQYGDVLVRNLRREAETGKPVTLKDVFGAYSMDVITSTSFGVNIDSLNNPQDPFVENTKKLLRFDFLDPFFLSITVFPFLIPILEVLNICVFPREVTNFLRKSVKRMKESRLEDTQKHRVDFLQLMIDSQNSKETESHKALSDLELVAQSIIFIFAGYETTSSVLSFIMYELATHPDVQQKLQEEIDAVLPNKAPPTYDTVLQMEYLDMVVNETLRLFPIAMRLERVCKKDVEINGMFIPKGVVVMIPSYALHRDPKYWTEPEKFLPERFSKKNKDNIDPYIYTPFGSGPRNCIGMRFALMNMKLALIRVLQNFSFKPCKETQIPLKLSLGGLLQPEKPVVLKVESRDGTVSGA
In the case of B1, the kcat was found to be 2.05 s⁻¹.
